Laboratory results taken from patent publication US20210206838A1.

Assays:
Experiment in all cases: cell-based or functional assay
[1] = biological target: HIV pseudovirus 0260.v5.c36 (envelope glycoprotein) (HIV)
[2] = biological target: HIV pseudovirus 0260.v5.c36 (envelope glycoprotein) (human immunodeficiency virus (HIV))
[3] = biological target: HIV pseudovirus BB1012-11.TC21 (envelope glycoprotein) (human immunodeficiency virus (HIV))
[4] = biological target: HIV pseudovirus CNE52 (envelope glycoprotein) (HIV)
[5] = biological target: HIV pseudovirus CNE52 (envelope glycoprotein) (human immunodeficiency virus (HIV))
[6] = biological target: HIV pseudovirus Ce1176_A3 (envelope glycoprotein) (HIV)
[7] = biological target: HIV pseudovirus Du172.17 (envelope glycoprotein) (HIV)
[8] = biological target: HIV pseudovirus Du172.17 (envelope glycoprotein) (human immunodeficiency virus (HIV))
[9] = biological target: HIV pseudovirus RHPA4259.7 (envelope glycoprotein) (HIV)
[10] = biological target: HIV pseudovirus RHPA4259.7 (envelope glycoprotein) (human immunodeficiency virus (HIV))
[11] = biological target: HIV pseudovirus SC05.8C11.2344 (envelope glycoprotein) (HIV)
[12] = biological target: HIV pseudovirus SC422661.8 (envelope glycoprotein) (human immunodeficiency virus (HIV))
[13] = biological target: envelope glycoprotein of HIV pseudovirus 263-8 (human immunodeficiency virus (HIV))
[14] = biological target: envelope glycoprotein of HIV pseudovirus 6952.v1.c20 (human immunodeficiency virus (HIV))
[15] = biological target: envelope glycoprotein of HIV pseudovirus AC10.0.29 (human immunodeficiency virus (HIV))
[16] = biological target: envelope glycoprotein of HIV pseudovirus Ce1176_A3 (human immunodeficiency virus (HIV))
[17] = biological target: envelope glycoprotein of HIV pseudovirus SC05.8C11.2344 (human immunodeficiency virus (HIV))
[18] = biological target: envelope glycoprotein of HIV pseudovirus X1193_c1 (human immunodeficiency virus (HIV))

Substance: Control (antibody)
- neutralization IC50 [1]: 0.051 µg/mL
- neutralization IC80 [1]: 0.143 µg/mL
- neutralization IC50 [2]: 0.027 µg/mL
- neutralization IC80 [2]: 0.105 µg/mL
- neutralization IC50 [3]: 0.005 µg/mL
- neutralization IC80 [3]: 0.021 µg/mL
- neutralization IC50 [4]: 2.92 µg/mL
- neutralization IC80 [4]: 17.8 µg/mL
- neutralization IC50 [5]: 0.904 µg/mL
- neutralization IC80 [5]: 16.8 µg/mL
- neutralization IC50 [6]: 0.02 µg/mL
- neutralization IC80 [6]: 0.076 µg/mL
- neutralization IC50 [7]: 0.051 µg/mL
- neutralization IC80 [7]: 0.672 µg/mL
- neutralization IC50 [8]: 0.013 µg/mL
- neutralization IC80 [8]: 0.198 µg/mL
- neutralization IC50 [9]: 0.018 µg/mL
- neutralization IC80 [9]: 0.047 µg/mL
- neutralization IC50 [10]: 0.011 µg/mL
- neutralization IC80 [10]: 0.033 µg/mL
- neutralization IC50 [11]: 0.019 µg/mL
- neutralization IC80 [11]: 0.071 µg/mL
- neutralization IC50 [12]: 0.028 µg/mL
- neutralization IC80 [12]: 0.126 µg/mL
- IC50 [13]: 1.12 µg/mL
- IC80 [13]: 9.37 µg/mL
- IC50 [14]: 0.053 µg/mL
- IC80 [14]: 0.373 µg/mL
- IC50 [15]: 0.033 µg/mL
- IC80 [15]: 0.117 µg/mL
- IC50 [16]: 0.018 µg/mL
- IC80 [16]: 0.049 µg/mL
- IC50 [17]: 0.018 µg/mL
- IC80 [17]: 0.084 µg/mL
- IC50 [18]: 0.019 µg/mL
- IC80 [18]: 0.065 µg/mL
